Laboratory results reported in US20080274976A1.
Several values for one entry are separate records, joined by “and”; a condition that tells them apart may be missing. Identical values can stand only once.

Key:
[1] = target: TSha1 K+ channel from trout (trout); experiment: open channel binding, ratio of Table III values
[2] = target: Shaker-Δ6-46 K+ channel (UniProt P08510); experiment: comparison of open- and closed-state KD, voltage clamp in Xenopus oocytes
[3] = target: TSha1 K+ channel from trout (trout); experiment: closed channel binding, ratio of Table III values

Chain of TSha1 K+ channel from trout (trout) (Q9I830 whole entry): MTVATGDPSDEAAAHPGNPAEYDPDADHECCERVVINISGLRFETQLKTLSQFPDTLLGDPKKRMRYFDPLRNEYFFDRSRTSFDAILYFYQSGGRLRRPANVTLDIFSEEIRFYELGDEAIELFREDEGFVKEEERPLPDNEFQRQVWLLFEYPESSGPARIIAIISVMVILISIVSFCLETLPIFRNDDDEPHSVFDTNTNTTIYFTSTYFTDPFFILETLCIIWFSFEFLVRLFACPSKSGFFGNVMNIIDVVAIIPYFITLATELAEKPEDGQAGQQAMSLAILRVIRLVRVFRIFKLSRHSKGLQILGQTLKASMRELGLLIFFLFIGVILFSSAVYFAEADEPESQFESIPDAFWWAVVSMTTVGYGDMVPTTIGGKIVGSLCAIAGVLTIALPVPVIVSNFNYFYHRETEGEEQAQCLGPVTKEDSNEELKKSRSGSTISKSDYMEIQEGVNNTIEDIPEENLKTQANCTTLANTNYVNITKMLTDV
Chain of Shaker-Δ6-46 K+ channel (P08510 other isoform, or with tags, fused parts or gaps mutant): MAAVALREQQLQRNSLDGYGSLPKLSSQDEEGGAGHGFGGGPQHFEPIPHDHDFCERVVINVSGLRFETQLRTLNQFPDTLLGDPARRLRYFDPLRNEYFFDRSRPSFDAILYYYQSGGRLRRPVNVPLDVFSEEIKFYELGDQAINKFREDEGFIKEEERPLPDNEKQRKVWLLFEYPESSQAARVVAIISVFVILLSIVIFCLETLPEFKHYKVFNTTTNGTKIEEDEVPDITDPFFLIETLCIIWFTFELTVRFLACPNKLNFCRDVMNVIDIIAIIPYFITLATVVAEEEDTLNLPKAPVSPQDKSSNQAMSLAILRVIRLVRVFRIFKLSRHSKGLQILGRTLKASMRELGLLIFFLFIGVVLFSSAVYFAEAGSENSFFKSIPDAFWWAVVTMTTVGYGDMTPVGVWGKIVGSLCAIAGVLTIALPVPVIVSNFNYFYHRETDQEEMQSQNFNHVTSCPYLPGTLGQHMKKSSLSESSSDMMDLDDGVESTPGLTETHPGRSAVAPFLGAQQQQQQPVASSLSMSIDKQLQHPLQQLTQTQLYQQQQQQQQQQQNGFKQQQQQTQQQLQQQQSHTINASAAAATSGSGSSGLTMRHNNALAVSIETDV

## κM-conotoxin RIIIK (peptide)
[1]
  fold higher k(O)on than in the Shaker-Δ6-46 channel: 3 fold
  fold smaller k(O)off than in the Shaker-Δ6-46 channel: 20 fold
[2]
  fold lower affinity for the open state (0 mV) than for the closed state: 3 fold and 4 fold
[3]
  fold higher k(C)on than in the Shaker-Δ6-46 channel: 4 fold
